Test results reported in article PMC12102760 (Protein Science : A Publication of the Protein Society, 2025).

Columns and labels:
EphA2-Fc = biological target: T1, EphA2-Fc (Homo sapiens, UniProt P29317); test: BLI; IgG captured on anti-human biosensors, quenched with Fc; receptor ECD-Fc in solution, three-fold dilutions from 300 nM; PBS, 1% BSA, 0.05% Tween 20; 25°C; 1:1 binding model; settings: both partners purified
T1 construct: EphA2, human, extracellular domain; Eph ECDs used for the phage selections were from R&D; also called EphA2 ECD
T1 sequence (P29317 24-537): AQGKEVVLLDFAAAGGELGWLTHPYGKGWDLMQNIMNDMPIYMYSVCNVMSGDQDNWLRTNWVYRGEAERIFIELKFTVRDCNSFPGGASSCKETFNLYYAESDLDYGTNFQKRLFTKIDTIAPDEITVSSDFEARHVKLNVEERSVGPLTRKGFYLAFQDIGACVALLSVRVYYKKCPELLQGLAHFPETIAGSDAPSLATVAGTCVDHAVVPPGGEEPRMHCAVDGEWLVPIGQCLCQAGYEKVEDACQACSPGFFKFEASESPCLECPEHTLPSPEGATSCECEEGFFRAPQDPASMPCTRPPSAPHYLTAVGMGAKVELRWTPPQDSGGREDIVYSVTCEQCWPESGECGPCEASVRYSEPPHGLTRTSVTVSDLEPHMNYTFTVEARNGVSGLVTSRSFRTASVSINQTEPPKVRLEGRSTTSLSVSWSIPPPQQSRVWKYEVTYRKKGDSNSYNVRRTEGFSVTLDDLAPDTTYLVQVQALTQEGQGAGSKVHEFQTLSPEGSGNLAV

EphA4-Fc = biological target: T2, EphA4-Fc (Homo sapiens, UniProt P54764); test: as above; settings: both partners purified
T2 construct: EphA4, human, extracellular domain
T2 sequence (P54764 20-547): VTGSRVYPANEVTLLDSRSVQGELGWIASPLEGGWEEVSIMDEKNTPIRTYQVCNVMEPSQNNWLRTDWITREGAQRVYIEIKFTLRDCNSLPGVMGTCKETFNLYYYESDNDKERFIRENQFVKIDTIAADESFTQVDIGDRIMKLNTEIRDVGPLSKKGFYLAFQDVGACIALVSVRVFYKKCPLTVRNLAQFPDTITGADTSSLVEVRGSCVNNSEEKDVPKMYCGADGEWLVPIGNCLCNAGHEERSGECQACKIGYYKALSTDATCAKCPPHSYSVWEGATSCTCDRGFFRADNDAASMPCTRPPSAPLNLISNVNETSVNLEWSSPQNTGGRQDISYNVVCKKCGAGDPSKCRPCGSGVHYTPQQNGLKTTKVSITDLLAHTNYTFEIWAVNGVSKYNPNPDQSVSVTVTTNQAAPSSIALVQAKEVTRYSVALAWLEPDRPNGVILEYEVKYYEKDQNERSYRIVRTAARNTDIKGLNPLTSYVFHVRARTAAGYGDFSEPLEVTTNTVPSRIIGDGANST

EphA8-Fc = biological target: T3, EphA8-Fc (Homo sapiens, UniProt P29322); test: as above; settings: both partners purified
T3 construct: EphA8, human, extracellular domain
T3 sequence (P29322 28-542): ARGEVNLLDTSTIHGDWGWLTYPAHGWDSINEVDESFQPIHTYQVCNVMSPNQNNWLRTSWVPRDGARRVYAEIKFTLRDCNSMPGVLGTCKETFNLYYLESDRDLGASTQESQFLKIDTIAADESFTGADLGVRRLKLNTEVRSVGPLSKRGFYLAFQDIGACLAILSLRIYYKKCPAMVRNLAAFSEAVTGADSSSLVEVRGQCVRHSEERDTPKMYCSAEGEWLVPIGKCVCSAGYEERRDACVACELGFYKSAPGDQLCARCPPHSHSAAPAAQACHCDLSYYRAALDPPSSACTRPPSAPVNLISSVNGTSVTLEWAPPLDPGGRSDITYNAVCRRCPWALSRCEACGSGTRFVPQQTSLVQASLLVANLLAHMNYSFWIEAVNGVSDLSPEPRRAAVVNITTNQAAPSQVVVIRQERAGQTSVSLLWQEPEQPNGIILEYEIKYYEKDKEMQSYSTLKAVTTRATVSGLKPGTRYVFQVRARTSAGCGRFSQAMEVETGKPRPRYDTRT

[1] = biological target: T4, EphA2 extracellular domain (ECD) (human, UniProt P29317); test: SPR; EphA2 ECD immobilised by amine coupling on GLC chip, Fabs from 100 nM in three-fold dilutions, PBS, 25°C, 1:1 Langmuir model; settings: both partners purified
T4 construct: EphA2, human, extracellular domain (LBD, CRD, FN1, FN2); The catalogue number is printed for the SEC and the selections; also called EphA2 ECD; EphA2-His; source: bought: R&D Systems (3035-A2)
T4 sequence (P29317 24-537): as the sequence (P29317 24-537) above

[2] = biological target: the molecule itself; test: crystal structure; Fab^S1CEL1 with EphA2 LBD-CRD, 4.6 Å; 16% PEG 8000, 100 mM CHES pH 9.0, 200 mM magnesium sulfate; one Fab and two LBD-CRD in the asymmetric unit

B1: IgG L1 (antibody, V domains shown)
VH: EVQLVESGGGLVQPGGSLRLSCAASGFTISSSYIHWVRQAPGKGLEWVASISSYYGSTSYADSVKGRFTISADTSKNTAYLQMNSLRAEDTAVYYCARSHYSVWWGWHSVSYYAAFDYWGQGTLVTVSS
VL: DIQMTQSPSSLSASVGDRVTITCRASQSVSSAVAWYQQKPGKAPKLLIYSASSLYSGVPSRFSGSRSGTDFTLTISSLQPEDFATYYCQQGSAPFTFGQGTKVEIK
notes: full-length IgG constant region not specified; as the light chain of m12; Bivalent full-length IgG; also called L1 IgG; Ab L1; source: mammalian cells, purified; copies: 2 + 2
Kd (EphA2-Fc): 0.27 nM | binding result (EphA4-Fc): no binding (tested: 300 nM) | binding result (EphA8-Fc): no binding (tested: 300 nM)

B2: Fab L1 (Fab, V domains shown)
VH: EVQLVESGGGLVQPGGSLRLSCAASGFTISSSYIHWVRQAPGKGLEWVASISSYYGSTSYADSVKGRFTISADTSKNTAYLQMNSLRAEDTAVYYCARSHYSVWWGWHSVSYYAAFDYWGQGTLVTVSS
VL: DIQMTQSPSSLSASVGDRVTITCRASQSVSSAVAWYQQKPGKAPKLLIYSASSLYSGVPSRFSGSRSGTDFTLTISSLQPEDFATYYCQQGSAPFTFGQGTKVEIK
notes: synthetic Fab from phage library F; The deposited chains carry crystallisation-enhancing framework substitutions that this Fab lacks; source: E. coli BL21, purified (Protein A)
Kd [1]: < 1 nM

B3: Fab F1 (Fab, V domains shown)
VH: EVQLVESGGGLVQPGGSLRLSCAASGFDSGAYLRHWVRQAPGKGLEWVASIYPSYGYTSYADSVKGRFTISADTSKNTAYLQMNSLRAEDTAVYYCARSAASYYGYWHWYHFSPGMDYWGQGTLVTVSS
VL: DIQMTQSPSSLSASVGDRVTITCRASQSVSSAVAWYQQKPGKAPKLLIYSASDLYSGVPSRFSGSRSGTDFTLTISSLQPEDFATYYCQQYVSGGWLITFGQGTKVEIK
notes: Fab^S1F1 in PDB 8T7F (chains C and G, heavy and light chain); Optimised from the parental Fab F1′ (Enderle et al., 2021); The deposited chains carry framework substitutions that this Fab lacks; source: E. coli BL21, purified (Protein A)
Kd [1]: < 1 nM

B4: Fab C1 (Fab, V domains shown)
VH: EVQLVESGGGLVQPGGSLRLSCAASGFTIYYSSMHWVRQAPGKGLEWVASISSYYGYTYYADSVKGRFTISADTSKNTAYLQMNSLRAEDTAVYYCARYYAMDYWGQGTLVTVSS
VL: DIQMTQSPSSLSASVGDRVTITCRASQSVSSAVAWYQQKPGKAPKLLIYSASSLYSGVPSRFSGSRSGTDFTLTISSLQPEDFATYYCQQYYGYGGYPITFGQGTKVEIK
notes: as for B2
Kd [1]: < 1 nM

B5: EphA2 LBD-CRD (residues 23-326) (domain or fragment, human, UniProt P29317 23-326, looked up)
chain: AAQGKEVVLLDFAAAGGELGWLTHPYGKGWDLMQNIMNDMPIYMYSVCNVMSGDQDNWLRTNWVYRGEAERIFIELKFTVRDCNSFPGGASSCKETFNLYYAESDLDYGTNFQKRLFTKIDTIAPDEITVSSDFEARHVKLNVEERSVGPLTRKGFYLAFQDIGACVALLSVRVYYKKCPELLQGLAHFPETIAGSDAPSLATVAGTCVDHAVVPPGGEEPRMHCAVDGEWLVPIGQCLCQAGYEKVEDACQACSPGFFKFEASESPCLECPEHTLPSPEGATSCECEEGFFRAPQDPASMPCT
notes: EphA2, human, LBD-CRD, residues 23-326; A thrombin cleavage site precedes the C-terminal hexahistidine tag; also called LBD-CRD1; LBD-CRD2; source: kifunensine culture, deglycosylated by endoH
binding result [2]: binds
